Test results reported in patent US7871610B2, “Antibodies to Tie1 ectodomain” (Dyax Corp., priority 2003, dated 2011).
Changes are numbered by the printed parent chain. Entries after “also recorded” stand apart in the source; their conditions may differ.

T1: Tie1-EpoR chimeric receptor (UniProt P14753+P35590)
T1 construct: the PCR amplified extracellular part of human Tie1 (bp 37-2316 of X60975); expressed in transfected cells
T1 sequence (P35590+P14753 with tags, fused parts or gaps): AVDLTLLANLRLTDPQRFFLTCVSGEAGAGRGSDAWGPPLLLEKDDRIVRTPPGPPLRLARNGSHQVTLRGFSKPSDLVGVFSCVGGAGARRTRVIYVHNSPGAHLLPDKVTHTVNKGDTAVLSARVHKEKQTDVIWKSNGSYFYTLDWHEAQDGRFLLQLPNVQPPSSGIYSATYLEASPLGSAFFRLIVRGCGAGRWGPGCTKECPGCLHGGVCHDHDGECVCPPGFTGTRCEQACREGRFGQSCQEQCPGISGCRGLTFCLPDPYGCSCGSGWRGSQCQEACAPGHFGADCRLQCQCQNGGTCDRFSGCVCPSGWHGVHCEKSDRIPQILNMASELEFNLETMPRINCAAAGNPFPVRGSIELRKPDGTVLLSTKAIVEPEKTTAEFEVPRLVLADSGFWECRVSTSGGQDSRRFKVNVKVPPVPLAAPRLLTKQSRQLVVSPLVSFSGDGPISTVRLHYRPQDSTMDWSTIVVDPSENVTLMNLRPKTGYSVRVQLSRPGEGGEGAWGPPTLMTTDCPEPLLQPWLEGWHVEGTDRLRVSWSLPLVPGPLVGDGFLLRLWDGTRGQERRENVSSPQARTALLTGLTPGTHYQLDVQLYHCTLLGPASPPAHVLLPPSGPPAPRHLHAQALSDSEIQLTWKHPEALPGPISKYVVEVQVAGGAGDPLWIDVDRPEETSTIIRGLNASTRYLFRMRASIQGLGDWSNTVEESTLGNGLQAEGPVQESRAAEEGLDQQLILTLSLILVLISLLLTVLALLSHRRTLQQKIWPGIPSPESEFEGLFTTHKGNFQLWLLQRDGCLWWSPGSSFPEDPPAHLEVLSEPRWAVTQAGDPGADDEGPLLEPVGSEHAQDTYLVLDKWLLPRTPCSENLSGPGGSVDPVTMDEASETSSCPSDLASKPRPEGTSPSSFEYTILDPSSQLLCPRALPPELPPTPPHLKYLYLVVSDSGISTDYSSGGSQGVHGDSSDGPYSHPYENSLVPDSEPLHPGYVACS

B1: A2: anti-Tie1 antibody; VH SEQ ID NO:56, VL SEQ ID NO:58; not the anti-streptavidin A2-SV (antibody, V domains shown)
VH: EVQLLESGGGLVQPGGSLRLSCAASGFTFSRYTMMWVRQAPGKGLEWVSGIYPSGGVTLYADSVKGRFTISRDNSKNTLYLQMNSLRAEDTAVYYCARVNYYDSSGYGPIAPGLDYWGQGTLVTVSSASTKGPSVFP
VL: HSAQDIQMTQSPGTLSLSPGERATLSCRASRSVIISYVAWYQQKPGQAPRLLIYGASTRATGIPDRFSGSGSGTDFTLTISRLEPEDFAVYFCQLYGRSPRIIFGQGTRLEIK
modifications: Synthetically generated peptide
notes: anti-Tie1 antibody; not the anti-streptavidin A2-SV
B2: P-B3: anti-Tie1 antibody; VH SEQ ID NO:24, VL SEQ ID NO:26 (antibody, V domains shown)
VH: EVQLLESGGGLVQPGGSLRLSCAASGFTFSRYGMHWVRQAPGKGLEWVSVISPSGGMTYYADSVKGRFTISRDNTKNTLYLQMNSLRAEDTAVYYCARVGATGPFDIWGQGTMVTVSSASTKGPSVFPLAP
VL: QDIQMTQSPATLSLSPGERATLSCRASQSVSTYLAWYQQKPGQAPRLLIYDASNRATGIPGRFSGSGSGTDFTLTISSLEAEDFAVYYCQQRSSWPITFGQG
modifications: Synthetically generated peptide
B3: P-C6: anti-Tie1 antibody; VH SEQ ID NO:28, VL SEQ ID NO:30 (antibody, V domains shown)
VH: EVQLLESGGGLVQPGGSLRLSCAASGFTFSHYGMTWVRQAPGKGLEWVSVISPSGGQTGYADSVKGRFTISRDNSKNTLYLQMNSLRAEDTAVYYCAGGGYAAFDYWGQGTLVTVSSASTKGPSVFPLAPSSKSTSGGTAALG
VL: B2 VL with T32S, G61A, A81P, S94N, I97L, Q101G
modifications: Synthetically generated peptide
B4: A10: anti-Tie1 antibody; VH SEQ ID NO:60, VL SEQ ID NO:62 (antibody, V domains shown)
VH: EVQLLESGGGLVQPGGSLRLSCAASGFTFSNYVMVWVRQAPGKGLEWVSGIYPSGGHTKYADSVKGRFTISRDNSKNTLYLQMNSLRAEDTAVYYCARVNYYDSSGYGPIAPGLDYWGQGTLV
VL: HSAQDIQMTQSPGTLSLSPGERATLFCRASQRVTSNSLAWYQQRPGQAPRLLIYDASTRATGIPDRFSGSGSGRDFTLTISRLEPEDFAVYYCQRYGSSVLYSFGQGTKLEIT
modifications: Synthetically generated peptide
B5: C7: anti-Tie1 antibody; VH SEQ ID NO:76, VL SEQ ID NO:78 (antibody, V domains shown)
VH: EVQLLESGGGLVQPGGSLRLSCAASGFTFSRYVMYWVRQAPGKGLEWVSVIYPSGGATYYADSVKGRFTISRDNSKNTLYLQMNSLRAEDTAVYYCARRGSSGAFDYWGQGTLVTVSSASTKGPSVFP
VL: HSAQSVLTQPASVSGSPGQSITISCTGTSSDIGRYNYASWYQQRPGKSPKLLIYEVSDRPSGVSNRFSGSKSGNTASLIISGLQAEDEADYYCSSYSSTNSLQVVFGGGTKLSVLGQPKAAPSVTLFPPSSEELQANKATLVCL
modifications: Synthetically generated peptide
B6: G2: anti-Tie1 antibody; HC SEQ ID NO:110, LC SEQ ID NO:112 (antibody)
heavy: EVQLLESGGGLVQPGGSLRLSCAASGFTFSSYKMGWVRQAPGRGLEWVSSIYPSGGWTHYADSVKGRFTISRDNSKNTLYLQMNSLRAEDTAVYYCARVLLHYFDYWGQGTLVTVSSASTKGPSVFPLAPSSKSTSGAQRPWAAWSRTTSRDTGDGV
light: QSVLTQPASVSGSPGQSITISCTGTSSDVGGYKYVSWYQQHPGKAPKLIISDVNNRPSGVSDRFSGSKSGNTASLTISGLQAEDDGDYYCSSYASSSYTSSTTWVFGG
modifications: Synthetically generated peptide
B7: B2: anti-Tie1 antibody; VH SEQ ID NO:64, VL SEQ ID NO:66 (antibody, V domains shown)
VH: EVQLLESGGGLVQPGGSLRLSCAASGFTFSIYGMAWVRQAPGKGLEWVSVISPSGGQTFYADSVKGRFTISRDNSKNTLYLQMNSLRAEDTAVYYCARVYYYGMDVWGQGTTVTVSSASTKGPSVFP
VL: HSAQDIQMTQSPATLSLSPGERATLSCRASQSVSSYLAWYQQKPGQAPRLLIYDASNRATGIPARFSGSGSETDFTLTISSLEPEDFAVYYCQQRSKWPRTFGQGTKLEIK
modifications: Synthetically generated peptide

How the values were obtained:
[1] = molecular target: T1, Tie1-EpoR chimeric receptor; assay: Ba/F3 bioassay (Tie1/EpoR chimeric BaF3 cell assay), MTT viability; assay type: cell-based, human; details: 100 ng/ml E3 IgG together with 100 (1:1) or 500 (1:5) ng/ml of the other antibody
Excerpt: To generate Tie1-EpoR expressing Ba/F3 cells for the bioassay, Ba/F3 pre-B cells were stably transfected with a nucleic acid that expresses chimeric receptor containing the extracellular domain of human Tie1 fused with the transmembrane and cytoplasmic domains of the mouse erythropoietin receptor. The nucleic acid used was a Tie1-EpoR chimeric cDNA in a pEF-BOS expression vector. The nucleic acid encoding the chimeric receptor was constructed by cloning the PCR amplified extracellular part of human Tie1 (bp 37-2316 of X60975) as EcoRI-BglII fragment into mEpoR-pcDNA vector. The cDNA encoding for the chimeric receptor consisting of the extracellular part of Tie1 fused with the transmembrane and intracellular domains of EpoR was subcloned into the pEF-BOS expression vector. Vector was linearized and co-transfected into Ba/F3 cells with pcDNA3.1(+) Zeo vector (Invitrogen). Stable cell pools were generated by selection with 250 μg/ml Zeocin. The expression of Tie1/EpoR fusion protein in several clones was analyzed by Western blotting with an antibody against EpoR.
To perform the assays, Ba/F3 cells expressing the Tie 1-EpoR chimera were split in 96-well microtiter plates at 50 000 cells/well in the presence of the indicated concentrations of anti-Tie1 antibodies. As controls, Zeocin resistant pools not expressing the Tie1-EpoR were used. After 48 h, the viability of the cells was determined by adding MTT (3-(4,5-dimethylthiazol-2-yl)-2,5-diphenyl tetrazolium bromide (Sigma), 0.5 mg/ml), followed by further 2 h of culture, addition of an equal volume of cell lysis solution (10% SDS, 10 mM HCl) and incubation overnight at 37° C. Absorbance was measured at 540 nm.
Although no ligand for Tie1 has been identified, we used the following efficient screening method for Tie1-binding proteins. Interleukin-3 dependent pre-B-lymphocyte (Ba/F3) cells were transfected with a construct that expresses a Tie1-EpoR fusion protein. Since Ba/F3 cells are IL-3 dependent, they die unless IL-3 is provided. However, Tie-EpoR receptor expressing Ba/F3 cells can survive and proliferate if the medium contains a Tie1-binding protein, either a natural ligand or an artificial mimetic. Cell survival can be quantitated, e.g., by colorimetric MTT-assay, which measures mitochondrial activity.

Tie1 = Tie1 (Homo sapiens, UniProt P35590); assay: Immunohistochemistry of matched human tumor and normal tissue sections; design: from tissue; host or cells: fresh frozen normal and tumor tissue (e.g. lung, kidney, skin, breast); details: fresh frozen tissue
Chain of Tie1 (P35590 22-1138): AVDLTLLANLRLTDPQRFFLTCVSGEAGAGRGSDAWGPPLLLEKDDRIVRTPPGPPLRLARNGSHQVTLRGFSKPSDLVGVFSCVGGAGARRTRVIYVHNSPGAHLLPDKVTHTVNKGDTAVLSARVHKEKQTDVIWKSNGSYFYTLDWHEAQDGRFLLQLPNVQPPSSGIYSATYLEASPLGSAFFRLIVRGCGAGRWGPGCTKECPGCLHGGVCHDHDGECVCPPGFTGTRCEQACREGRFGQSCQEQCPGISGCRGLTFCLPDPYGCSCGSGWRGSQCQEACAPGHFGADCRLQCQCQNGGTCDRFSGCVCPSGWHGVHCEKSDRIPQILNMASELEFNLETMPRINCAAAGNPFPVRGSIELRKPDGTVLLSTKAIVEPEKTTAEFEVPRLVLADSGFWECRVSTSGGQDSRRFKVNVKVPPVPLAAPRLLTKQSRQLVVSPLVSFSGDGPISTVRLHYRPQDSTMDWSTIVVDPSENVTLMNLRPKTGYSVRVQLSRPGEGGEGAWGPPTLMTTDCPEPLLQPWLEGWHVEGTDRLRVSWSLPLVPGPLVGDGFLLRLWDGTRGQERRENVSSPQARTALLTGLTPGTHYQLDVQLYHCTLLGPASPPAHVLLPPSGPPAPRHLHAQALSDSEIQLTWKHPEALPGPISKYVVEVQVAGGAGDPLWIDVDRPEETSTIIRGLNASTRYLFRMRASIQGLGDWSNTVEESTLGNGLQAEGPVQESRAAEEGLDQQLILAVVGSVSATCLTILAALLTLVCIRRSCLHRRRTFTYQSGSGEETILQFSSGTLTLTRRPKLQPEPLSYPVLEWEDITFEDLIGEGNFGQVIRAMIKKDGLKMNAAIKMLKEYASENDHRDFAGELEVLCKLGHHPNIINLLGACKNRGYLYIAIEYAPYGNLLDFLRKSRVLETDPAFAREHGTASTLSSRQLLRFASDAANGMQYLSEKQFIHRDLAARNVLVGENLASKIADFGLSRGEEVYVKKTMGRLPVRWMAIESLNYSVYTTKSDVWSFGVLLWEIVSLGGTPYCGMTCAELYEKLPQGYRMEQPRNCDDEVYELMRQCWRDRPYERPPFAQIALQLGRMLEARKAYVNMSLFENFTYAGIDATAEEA
Experimental: The Tie-1 antibodies were biotinylated using the EZ-link Sulfo-NHS-SS-Biotin (Pierce, Cat. 21331). For Tie-1/Fc and Tie-1-His, the reaction was performed for 2 hours on ice in 50 mM sodium carbonate buffer, pH 9.6, in the presence of a 5-fold molar excess of biotinylating agent. For the antibodies, the reaction was performed for 2 hours on ice in PBS, in the presence of a 15-fold molar excess of EZ-link Sulfo-NHS-SS-Biotin. The reaction was stopped by the addition of Tris-HCl, pH 7.5 (50 mM final concentration) followed by a 1-hour incubation on ice. Samples were then dialyzed against PBS.
Various normal and tumor tissue sections were stained with biotinylated antibodies. A mouse monoclonal anti-Tie1 antibody (7e8) (Alitalo laboratory, University of Helsinki) was used as a positive control. Sections without primary antibody served as negative control. All samples were fresh frozen tissues and staining was performed with the TSA-kit (Perkin-Elmer Life Sciences). After acetone fixation (10-20 min, −20° C.) the slides were treated with 0.73% H2O2 for 10 min to reduce endogenous peroxidase activity followed by blocking for 30 min with TNB buffer. Sections ([…] thick) were incubated with primary antibodies (10 μg/ml) overnight at 4° C. Sections with the mouse monoclonal anti-tie1 antibody (7e8) were treated with biotinylated anti-mouse antibodies (VectaStain) before the addition of streptavidin-HRP. Signal was amplified by using a TSA kit and the visualized by AEC (235 ml NaAc, 15 ml AEC (stock solution: 1600 mg 3-amino-9-ethyl-carbazole and 480 ml N-dimethylformamide), 250 μl H2O2).

Molecule | effect on the survival effect of E3 IgG in Tie1-EpoR Ba/F3 assay [1] | also measured
B1 | inhibited the viability effect of E3 IgG to some extent | 
B2 | inhibited the viability effect of E3 IgG to some extent | 
B3 | inhibited the viability effect of E3 IgG to some extent | 
B4 | inhibited the viability effect of E3 IgG to some extent | 
B5 | promoted the survival | 
B6 | promoted the survival | 
B7 | completely blocked the viability; also recorded: blocked completely the survival effect of E3 IgG; also recorded: counteract the agonistic activity of E3 | staining of breast carcinoma (Tie1; 10 μg/ml): stained also other structures in addition to vessels; staining of kidney (Tie1; 10 μg/ml): only very faint staining of either tubules or vessels; staining of lung carcinoma (Tie1; 10 μg/ml): stained structures other than vessels; staining of melanoma tissue (Tie1; 10 μg/ml): also stained other surrounding structures; staining of normal lung (large veins) (Tie1; 10 μg/ml): did not stain the same veins; staining of normal skin (Tie1; 10 μg/ml): stained blood vessels very faintly; staining of vessels in normal tissues (tissue specificity) (Tie1; biotinylated IgG 10 μg/ml): stained vessels very faintly in other normal tissues than in the breast
